Key:
Grb2 SH2 = Grb2 SH2 (UniProt P62993); assay: SH2 binding enrichment of the phosphorylated peptide, bacterial display (enrichment ratio); higher = better substrate or ligand; peptides without Tyr show the background
c-Src SH2 = assay: as above
SHP2-C SH2 = assay: as above
FGFR3 = FGFR3 (UniProt P22607); assay: phosphorylation enrichment, bacterial display (enrichment ratio); higher = better substrate or ligand; peptides without Tyr show the background
c-Abl (mouse) = assay: as above
Fes = Fes (UniProt P07332); assay: as above
Fyn = Fyn (UniProt P06241); assay: as above
Hck = Hck (UniProt P08631); assay: as above
Fer (mouse) = assay: as above
EPHB2 = EPHB2 (UniProt P29323); assay: as above
c-Src = assay: as above
AncSZ = assay: as above
MERTK = MERTK (UniProt Q12866); assay: as above
FGFR1 = FGFR1 (UniProt P11362); assay: as above
Jak2 = Jak2 (UniProt O60674); assay: as above
EPHB1 = EPHB1 (UniProt P54762); assay: as above
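Throughout, for SH2 binding enrichment of the phosphorylated peptide, bacterial display: peptide library displayed on the E. coli surface as eCPX fusions, selected cells deep-sequenced, score is each peptide's frequency after selection divided by its frequency in the input.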
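Throughout, for phosphorylation enrichment, bacterial display: 11-residue human phosphosite peptides and single-mutation variants displayed on the E. coli surface, counted by deep sequencing, each peptide's frequency after selection divided by its frequency in the unselected input library; frequency after pTyr selection over input frequency; kinase dosed for 20-30% of maximal phosphorylation in three min.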

Chain of Jak2 (O60674 whole entry, looked up): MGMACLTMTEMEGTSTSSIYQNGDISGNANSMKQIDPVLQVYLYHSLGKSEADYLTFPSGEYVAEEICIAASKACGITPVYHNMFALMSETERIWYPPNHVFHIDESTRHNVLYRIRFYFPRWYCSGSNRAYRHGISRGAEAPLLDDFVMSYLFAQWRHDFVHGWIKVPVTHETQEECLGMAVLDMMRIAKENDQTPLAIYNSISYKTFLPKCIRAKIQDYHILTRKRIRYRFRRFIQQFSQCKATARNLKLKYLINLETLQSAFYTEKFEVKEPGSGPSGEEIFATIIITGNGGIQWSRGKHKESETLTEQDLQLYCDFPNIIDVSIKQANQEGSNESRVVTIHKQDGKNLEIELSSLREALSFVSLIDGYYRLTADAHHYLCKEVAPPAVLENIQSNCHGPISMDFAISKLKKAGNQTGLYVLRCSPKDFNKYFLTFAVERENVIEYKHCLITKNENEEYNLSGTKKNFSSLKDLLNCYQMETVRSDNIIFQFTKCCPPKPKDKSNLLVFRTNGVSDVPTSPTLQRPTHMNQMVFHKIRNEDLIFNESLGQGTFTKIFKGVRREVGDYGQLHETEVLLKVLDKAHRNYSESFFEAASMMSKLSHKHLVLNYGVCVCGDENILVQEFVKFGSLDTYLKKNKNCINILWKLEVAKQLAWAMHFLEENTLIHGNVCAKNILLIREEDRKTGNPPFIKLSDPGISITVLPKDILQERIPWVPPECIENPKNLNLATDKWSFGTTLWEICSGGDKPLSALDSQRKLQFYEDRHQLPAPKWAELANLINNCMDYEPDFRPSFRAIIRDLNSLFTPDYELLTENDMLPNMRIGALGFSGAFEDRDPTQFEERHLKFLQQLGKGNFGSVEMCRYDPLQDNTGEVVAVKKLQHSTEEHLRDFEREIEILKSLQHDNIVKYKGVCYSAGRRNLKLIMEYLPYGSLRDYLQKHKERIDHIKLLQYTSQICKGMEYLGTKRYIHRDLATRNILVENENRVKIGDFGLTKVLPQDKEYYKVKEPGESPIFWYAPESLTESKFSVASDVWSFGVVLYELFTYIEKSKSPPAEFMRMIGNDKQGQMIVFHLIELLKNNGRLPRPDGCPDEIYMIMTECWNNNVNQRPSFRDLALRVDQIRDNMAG
Chain of Fyn (P06241 whole entry, looked up): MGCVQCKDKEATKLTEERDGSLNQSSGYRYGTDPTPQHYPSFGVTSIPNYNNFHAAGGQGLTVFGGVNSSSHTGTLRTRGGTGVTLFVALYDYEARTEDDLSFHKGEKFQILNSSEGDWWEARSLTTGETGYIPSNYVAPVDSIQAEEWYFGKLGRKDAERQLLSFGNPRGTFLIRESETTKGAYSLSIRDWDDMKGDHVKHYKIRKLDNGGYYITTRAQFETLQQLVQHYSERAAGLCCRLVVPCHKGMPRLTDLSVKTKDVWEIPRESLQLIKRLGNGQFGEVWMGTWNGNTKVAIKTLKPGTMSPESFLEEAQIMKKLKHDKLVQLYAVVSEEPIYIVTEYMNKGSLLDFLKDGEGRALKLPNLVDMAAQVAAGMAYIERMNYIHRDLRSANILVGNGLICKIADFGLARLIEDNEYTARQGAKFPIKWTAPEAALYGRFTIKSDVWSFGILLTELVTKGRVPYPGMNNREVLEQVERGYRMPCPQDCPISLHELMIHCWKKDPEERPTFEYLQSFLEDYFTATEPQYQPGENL
Chain of EPHB2 (P29323 whole entry, looked up): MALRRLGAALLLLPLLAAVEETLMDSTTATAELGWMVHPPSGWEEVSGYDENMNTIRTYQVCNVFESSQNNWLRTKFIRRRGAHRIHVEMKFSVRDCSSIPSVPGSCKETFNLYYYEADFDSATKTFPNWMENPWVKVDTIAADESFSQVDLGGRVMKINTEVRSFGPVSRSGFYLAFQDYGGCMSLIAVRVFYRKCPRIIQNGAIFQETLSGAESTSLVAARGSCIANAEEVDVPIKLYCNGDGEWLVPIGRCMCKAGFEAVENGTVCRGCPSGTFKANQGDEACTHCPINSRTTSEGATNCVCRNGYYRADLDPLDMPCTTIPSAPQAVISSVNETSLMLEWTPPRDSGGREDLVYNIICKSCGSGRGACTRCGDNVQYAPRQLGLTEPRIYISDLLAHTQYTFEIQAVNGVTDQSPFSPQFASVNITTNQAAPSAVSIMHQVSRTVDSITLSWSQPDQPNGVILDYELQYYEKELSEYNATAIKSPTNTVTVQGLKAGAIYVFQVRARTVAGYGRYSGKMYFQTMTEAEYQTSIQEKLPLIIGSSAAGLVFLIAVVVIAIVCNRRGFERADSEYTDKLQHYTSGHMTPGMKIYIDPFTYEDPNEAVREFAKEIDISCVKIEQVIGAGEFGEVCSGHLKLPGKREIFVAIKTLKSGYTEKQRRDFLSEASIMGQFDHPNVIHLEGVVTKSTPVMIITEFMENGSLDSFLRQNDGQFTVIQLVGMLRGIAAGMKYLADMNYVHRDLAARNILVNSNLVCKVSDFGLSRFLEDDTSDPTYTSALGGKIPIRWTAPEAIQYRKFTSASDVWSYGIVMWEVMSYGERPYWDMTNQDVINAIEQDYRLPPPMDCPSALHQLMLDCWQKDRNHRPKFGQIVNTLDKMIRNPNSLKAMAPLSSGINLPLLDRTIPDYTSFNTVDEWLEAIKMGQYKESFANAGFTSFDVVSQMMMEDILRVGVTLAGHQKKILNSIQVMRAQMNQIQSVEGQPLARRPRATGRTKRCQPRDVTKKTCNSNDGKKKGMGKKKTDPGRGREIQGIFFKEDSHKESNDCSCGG
Chain of Fes (P07332 whole entry, looked up): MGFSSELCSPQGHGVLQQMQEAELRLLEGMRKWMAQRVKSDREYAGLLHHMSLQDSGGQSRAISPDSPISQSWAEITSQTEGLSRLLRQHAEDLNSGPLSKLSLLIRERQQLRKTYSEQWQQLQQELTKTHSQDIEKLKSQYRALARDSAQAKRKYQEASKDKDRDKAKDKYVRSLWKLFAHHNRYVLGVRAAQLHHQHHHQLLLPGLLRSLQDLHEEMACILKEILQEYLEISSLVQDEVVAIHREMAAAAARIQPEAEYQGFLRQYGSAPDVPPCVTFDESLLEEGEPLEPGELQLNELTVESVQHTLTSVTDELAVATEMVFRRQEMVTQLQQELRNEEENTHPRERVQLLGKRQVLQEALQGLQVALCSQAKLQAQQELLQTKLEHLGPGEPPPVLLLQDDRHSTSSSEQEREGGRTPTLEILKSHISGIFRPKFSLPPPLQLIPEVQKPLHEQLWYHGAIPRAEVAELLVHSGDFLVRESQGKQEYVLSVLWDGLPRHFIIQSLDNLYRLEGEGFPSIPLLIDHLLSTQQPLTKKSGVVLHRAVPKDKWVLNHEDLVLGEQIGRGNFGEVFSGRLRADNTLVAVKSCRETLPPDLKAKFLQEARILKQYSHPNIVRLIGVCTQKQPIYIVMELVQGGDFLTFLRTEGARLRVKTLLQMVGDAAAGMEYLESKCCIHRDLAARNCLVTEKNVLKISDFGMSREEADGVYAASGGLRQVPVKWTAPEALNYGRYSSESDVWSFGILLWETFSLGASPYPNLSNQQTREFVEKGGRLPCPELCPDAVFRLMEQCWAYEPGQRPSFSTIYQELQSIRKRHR
Chain of FGFR1 (P11362 whole entry, looked up): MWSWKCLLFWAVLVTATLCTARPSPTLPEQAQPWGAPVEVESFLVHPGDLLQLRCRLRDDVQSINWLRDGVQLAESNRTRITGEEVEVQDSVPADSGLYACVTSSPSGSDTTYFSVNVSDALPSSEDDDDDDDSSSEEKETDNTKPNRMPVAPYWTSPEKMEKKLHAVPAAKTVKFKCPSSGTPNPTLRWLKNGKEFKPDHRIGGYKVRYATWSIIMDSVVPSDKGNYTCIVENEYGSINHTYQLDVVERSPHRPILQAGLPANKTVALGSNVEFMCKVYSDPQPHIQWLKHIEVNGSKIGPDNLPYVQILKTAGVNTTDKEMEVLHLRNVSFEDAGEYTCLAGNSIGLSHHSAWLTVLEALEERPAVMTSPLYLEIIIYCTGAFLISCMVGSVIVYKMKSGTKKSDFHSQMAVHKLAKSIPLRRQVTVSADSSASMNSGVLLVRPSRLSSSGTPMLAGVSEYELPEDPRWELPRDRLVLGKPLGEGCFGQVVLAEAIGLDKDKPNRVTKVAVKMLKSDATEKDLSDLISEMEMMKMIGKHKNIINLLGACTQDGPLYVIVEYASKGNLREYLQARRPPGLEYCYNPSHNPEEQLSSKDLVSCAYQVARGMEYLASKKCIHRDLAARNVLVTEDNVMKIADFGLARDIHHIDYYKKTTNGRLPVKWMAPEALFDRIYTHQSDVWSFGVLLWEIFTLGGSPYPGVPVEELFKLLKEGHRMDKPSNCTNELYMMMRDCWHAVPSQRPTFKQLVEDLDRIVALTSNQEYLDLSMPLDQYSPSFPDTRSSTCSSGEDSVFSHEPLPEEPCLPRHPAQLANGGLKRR
Chain of Hck (P08631 whole entry, looked up): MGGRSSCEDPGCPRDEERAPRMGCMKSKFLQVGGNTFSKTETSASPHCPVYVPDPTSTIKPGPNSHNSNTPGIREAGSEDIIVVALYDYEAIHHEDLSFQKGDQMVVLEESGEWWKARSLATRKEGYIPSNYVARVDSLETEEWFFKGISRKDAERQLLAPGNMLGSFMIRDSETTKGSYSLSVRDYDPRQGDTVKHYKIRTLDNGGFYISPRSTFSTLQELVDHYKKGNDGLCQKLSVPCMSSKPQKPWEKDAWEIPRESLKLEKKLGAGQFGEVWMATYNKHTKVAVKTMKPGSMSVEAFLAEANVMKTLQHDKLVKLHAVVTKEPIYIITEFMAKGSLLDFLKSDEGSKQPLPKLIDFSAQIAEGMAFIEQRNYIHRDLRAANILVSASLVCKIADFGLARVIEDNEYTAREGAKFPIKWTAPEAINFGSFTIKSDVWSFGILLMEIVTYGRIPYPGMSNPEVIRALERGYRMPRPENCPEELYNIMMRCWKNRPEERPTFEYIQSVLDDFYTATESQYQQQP

| Sequence | SH2 binding enrichment (Grb2 SH2) | SH2 binding enrichment (c-Src SH2) | SH2 binding enrichment (SHP2-C SH2) | phosphorylation enrichment (FGFR3) | phosphorylation enrichment (c-Abl (mouse)) | phosphorylation enrichment (Fes) | phosphorylation enrichment (Fyn) | phosphorylation enrichment (Hck) | phosphorylation enrichment (Fer (mouse)) | phosphorylation enrichment (EPHB2) | phosphorylation enrichment (c-Src) | phosphorylation enrichment (AncSZ) | phosphorylation enrichment (MERTK) | phosphorylation enrichment (FGFR1) | phosphorylation enrichment (Jak2) | phosphorylation enrichment (EPHB1) |
| --- | --- | --- | --- | --- | --- | --- | --- | --- | --- | --- | --- | --- | --- | --- | --- | --- |
| KAWTIYRPEDS [ZBP1_Y165] | 0.746 | 0.488 | 0.719 | 0.643 | 0.757 | 1.15 | 0.494 | 0.482 | 0.449 | 0.512 | 0.566 | 1.41 | 0.478 | 0.539 | 1.17 | 0.461 |
| VVHSSYDEIEG [SEC24A_Y263] | 1.03 | 36.8 | 0.87 | 0.648 | 0.713 | 1.12 | 0.498 | 0.475 | 0.492 | 0.549 | 0.442 | 1.04 | 0.429 | 0.493 | 0.892 | 0.51 |
| QYRFIYMAVQH [PTPN11_Y515] | 1.2 | 0.693 | 0.713 | 1.48 | 0.973 | 1.22 | 1.82 | 2.21 | 1.29 | 0.947 | 1.93 | 1.32 | 0.729 | 0.667 | 1.21 | 1.52 |
| FVHDNYVIQRT [CPS1_Y1450_R1453Q] | 0.971 | 0.624 | 0.596 | 0.567 | 0.52 | 0.672 | 0.425 | 0.436 | 0.694 | 1.07 | 0.481 | 0.788 | 0.469 | 0.481 | 0.7 | 2.19 |
| EFFDGYWEFSV [ITGA2B_Y265_G267E_YF] | 0.674 | 0.494 | 0.515 | 6.69 | 1.19 | 1.55 | 3.4 | 2.29 | 0.515 | 0.577 | 5.58 | 1.98 | 0.631 | 8.09 | 3.11 | 0.709 |
| DFPIGYPSYLA [TBCK_Y153] | 0.9 | 0.458 | 0.534 | 0.55 | 0.619 | 0.902 | 0.438 | 0.422 | 0.582 | 0.457 | 0.501 | 0.722 | 0.463 | 0.481 | 0.829 | 0.406 |
| EAVKNYTDKRG [PBRM1_Y672] | 0.866 | 0.516 | 0.567 | 0.459 | 0.489 | 0.653 | 0.421 | 0.38 | 0.41 | 0.498 | 0.433 | 0.56 | 0.478 | 0.418 | 0.56 | 0.484 |
| VEKEKYVSFIS [JMJD1C_Y596_M591V_YF] | 0.708 | 0.633 | 0.454 | 0.793 | 0.521 | 0.796 | 0.477 | 0.577 | 0.36 | 0.52 | 0.396 | 0.762 | 0.408 | 0.493 | 0.755 | 0.467 |
| PEIIAYQPYGK [PRKCG_Y529] | 0.747 | 0.622 | 0.676 | 0.723 | 1.15 | 1.08 | 0.68 | 0.82 | 0.537 | 0.665 | 0.523 | 0.852 | 0.589 | 0.823 | 1.31 | 0.585 |
| KGPGEYVNIEF [IRS1_Y896_S892G] | 4.8 | 5.64 | 1.22 | 1.14 | 0.493 | 0.79 | 0.58 | 0.498 | 0.475 | 0.639 | 0.484 | 0.958 | 0.442 | 1.43 | 0.691 | 0.708 |
| KLLLKYSFHDV [RNF213_Y4141] | 1.15 | 0.851 | 1.04 | 0.808 | 0.878 | 1.31 | 0.418 | 0.506 | 0.537 | 0.598 | 0.436 | 1.27 | 0.4 | 0.439 | 1.57 | 0.56 |
| TEGNGYISFNE [LCP1_Y28_D24E] | 0.722 | 14.1 | 0.889 | 0.636 | 0.723 | 1.01 | 0.539 | 0.528 | 0.487 | 0.595 | 0.573 | 1.09 | 0.499 | 0.468 | 0.823 | 0.734 |
| EVTLTYATGTK [NFKB1_Y485] | 0.701 | 0.418 | 0.528 | 0.643 | 0.774 | 1.11 | 0.496 | 0.514 | 0.425 | 0.526 | 0.409 | 0.805 | 0.371 | 0.404 | 0.75 | 0.526 |
| LVMFIYAIFWM [SCN1A_Y1684_G1688W] | 1.3 | 1.21 | 1.76 | 0.626 | 0.739 | 1.05 | 0.563 | 0.558 | 0.531 | 0.491 | 0.5 | 1.07 | 0.527 | 0.566 | 0.963 | 0.525 |
| LTERSYSFVTT [ACTA1_Y200_G199S] | 0.945 | 5.24 | 4.37 | 0.718 | 0.889 | 1.24 | 0.622 | 1.04 | 2.92 | 0.984 | 0.856 | 0.951 | 2.56 | 0.973 | 1.03 | 0.543 |
| VIKDKYPKVRF [APTX_Y209_A212V_YF] | 1.4 | 1.04 | 1.4 | 0.599 | 0.56 | 0.591 | 0.278 | 0.443 | 0.448 | 0.373 | 0.452 | 0.493 | 0.4 | 0.444 | 0.734 | 0.4 |
| KATKGYLDDPT [G6PD_Y322_E317K] | 0.888 | 0.489 | 0.84 | 0.484 | 0.451 | 0.639 | 0.405 | 0.417 | 0.329 | 0.603 | 0.395 | 0.73 | 0.443 | 0.529 | 0.755 | 0.431 |

| Sequence | SH2 binding enrichment (Grb2 SH2) | SH2 binding enrichment (c-Src SH2) | SH2 binding enrichment (SHP2-C SH2) | phosphorylation enrichment (FGFR3) | phosphorylation enrichment (c-Abl (mouse)) | phosphorylation enrichment (Fes) | phosphorylation enrichment (Fyn) | phosphorylation enrichment (Hck) | phosphorylation enrichment (Fer (mouse)) | phosphorylation enrichment (EPHB2) | phosphorylation enrichment (c-Src) | phosphorylation enrichment (AncSZ) | phosphorylation enrichment (MERTK) | phosphorylation enrichment (FGFR1) | phosphorylation enrichment (Jak2) | phosphorylation enrichment (EPHB1) |
| --- | --- | --- | --- | --- | --- | --- | --- | --- | --- | --- | --- | --- | --- | --- | --- | --- |
| GKFRMYVAVWT [F13A1_Y161] | 0.997 | 0.5 | 0.619 | 0.665 | 0.762 | 1.1 | 0.377 | 0.365 | 0.501 | 0.604 | 0.342 | 1.14 | 0.357 | 0.479 | 1.13 | 0.508 |
| NKKHHYRELPV [ERN2_Y860] | 1.62 | 1.41 | 1.48 | 2.45 | 2.31 | 1.97 | 0.669 | 1.01 | 1.22 | 0.773 | 0.996 | 1.04 | 0.795 | 0.826 | 2.67 | 0.855 |
| QEIATCRRLLE [KRT14_Y415_Y415C] | 0.908 | 0.704 | 0.469 | 0.508 | 0.641 | 0.928 | 0.352 | 0.635 | 0.337 | 0.502 | 0.372 | 0.896 | 0.407 | 0.634 | 0.643 | 0.412 |
| SHGQDYLAGNK [GSTA2_Y147_V149A] | 1.11 | 0.583 | 0.693 | 0.49 | 0.452 | 0.845 | 0.458 | 0.364 | 0.421 | 0.36 | 0.404 | 0.641 | 0.471 | 0.597 | 0.64 | 0.348 |
| FQKNIYSEEPR [LMNA_Y211_L215P] | 0.809 | 0.578 | 0.462 | 0.582 | 0.477 | 0.871 | 1.02 | 0.763 | 0.454 | 0.443 | 1.54 | 0.773 | 1.73 | 0.478 | 0.717 | 0.438 |
| GGRKGYGGFSR [RECQL5_Y478_D480G] | 0.736 | 0.453 | 0.571 | 0.452 | 0.506 | 0.491 | 0.513 | 0.42 | 0.36 | 0.396 | 0.487 | 0.551 | 0.512 | 0.391 | 0.51 | 0.393 |
| RNNIEYVRDIG [MUSK_Y577] | 1.21 | 0.634 | 0.725 | 0.58 | 0.602 | 0.693 | 0.369 | 0.395 | 0.426 | 0.404 | 0.416 | 0.676 | 0.3 | 0.413 | 0.436 | 0.437 |
| LRLFSYSTTIR [CYP7B1_Y365_S363F] | 0.983 | 0.494 | 0.871 | 0.773 | 0.663 | 1.09 | 0.421 | 0.57 | 0.457 | 0.45 | 0.358 | 0.815 | 0.35 | 0.357 | 1 | 0.654 |
| SRVTQYERNFE [SNX1_Y463_D466N] | 0.845 | 0.569 | 0.593 | 0.499 | 0.634 | 0.813 | 0.45 | 0.435 | 0.438 | 0.387 | 0.377 | 0.763 | 0.379 | 0.453 | 0.662 | 0.421 |
| EEEYEYMNRRR [ERBB3_Y1199_D1194E] | 0.777 | 0.605 | 0.618 | 0.583 | 0.329 | 0.804 | 0.332 | 0.546 | 0.342 | 0.402 | 0.36 | 1.15 | 0.356 | 0.429 | 0.882 | 0.324 |
| FEGAIYRKDIG [GART_Y417_V421I] | 0.903 | 0.563 | 0.71 | 0.743 | 0.515 | 0.769 | 0.524 | 0.506 | 0.446 | 0.464 | 0.477 | 0.868 | 0.451 | 0.478 | 0.617 | 0.442 |
| IGRWVYPLTPE [EIF2B5_Y319_R315G] | 0.962 | 0.62 | 0.878 | 0.646 | 0.717 | 1.02 | 0.49 | 0.509 | 0.461 | 0.58 | 0.502 | 1.33 | 0.551 | 0.564 | 0.874 | 0.563 |
| KLKRSYPSPDI [USP8_Y717_S718P] | 0.773 | 0.378 | 0.723 | 0.411 | 0.547 | 0.546 | 0.374 | 0.381 | 0.339 | 0.291 | 0.469 | 0.436 | 0.467 | 0.352 | 0.58 | 0.374 |
| EQLQSYQVEII [KRT33A_Y268_A270V] | 0.832 | 0.457 | 0.629 | 0.762 | 0.858 | 1.21 | 0.579 | 0.53 | 0.597 | 0.529 | 0.575 | 1.14 | 0.513 | 0.531 | 0.945 | 0.67 |
| RAMPVYKKAEH [TP63_Y231] | 1.29 | 0.351 | 0.459 | 0.238 | 0.301 | 0.379 | 0.337 | 0.27 | 0.28 | 0.26 | 0.288 | 0.462 | 0.292 | 0.304 | 0.306 | 0.197 |
| LIGRGYDDPEV [HSPA9_Y128_R127G] | 0.772 | 2.39 | 0.635 | 0.894 | 0.756 | 1.88 | 0.975 | 0.931 | 0.669 | 0.802 | 0.567 | 1.54 | 0.602 | 0.828 | 0.868 | 0.695 |

Reference: the supplement of paper PMC10065799, “High-throughput profiling of sequence recognition by tyrosine kinases and SH2 domains using bacterial peptide display” (eLife, 2023)
